Experimental data published in patent US11078246B2, “Peptides binding to Bfl-1” (Dana-Farber Cancer Institute, Inc., priority 2015, dated 2021).
Substitutions are numbered along the chain they refer to. Starred links: 1 amine or outer side, 2 acyl side, 3 side chain; linkers in the order of their positions; H or OH if unused. Positions of bridges follow the written chain, without caps; N, C: chain ends. Non-standard residues stand in square brackets, D forms with d. Residues, ends and D or L forms follow the SMILES beside them. No end group written: not given here. *: point of attachment. Nip(3R) = O=C([C@@H]1CCCN([*:1])C1)[*:2]; S5 = C=CCCC[C@](C)(N)C(=O)O; code J = not defined here; Acryloyl = C=CC(=O)*

Experiments:
HA-BFL-1ΔC C4S/C19S = biological target: T1, HA-BFL-1ΔC C4S/C19S (Homo sapiens, UniProt Q16548, C19S/C4S); assay: Crosslinking in lysates of transfected 293T cells; type: binding; conditions: 293T lysate
T1 construct: cDNA encoding BFL-1ΔC (aa 1-153) was cloned into the pET19b expression vector; expressed in transfected cells; host or cells: 293T
T1 sequence (Q16548 1-153 C4S/C19S): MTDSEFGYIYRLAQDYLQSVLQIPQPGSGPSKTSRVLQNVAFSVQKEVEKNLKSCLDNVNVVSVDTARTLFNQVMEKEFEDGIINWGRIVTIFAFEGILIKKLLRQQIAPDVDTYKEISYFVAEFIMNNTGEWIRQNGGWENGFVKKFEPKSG
Protocol: 293T cells were maintained in DMEM containing 10% FBS and penicillin/streptomycin, and transfections performed with 2 μg pCMV plasmid containing HA-BFL-1ΔC C4S/C19S using X-tremeGENE 9 (Roche). For lysate experiments, cells were trypsinized 24 hours post-transfection, washed with PBS, and lysed by incubation with 1% CHAPS lysis buffer (150 mM NaCl, 50 mM Tris pH 7.4, 100 mM DTT). Protein concentration of the soluble fraction was measured using a BCA kit according to manufacturer's instructions (Thermo Scientific). […] Samples were then boiled in LDS buffer and subjected to western analysis using 1:1000 dilutions of HA (Sigma-Aldrich. #12CA5) and biotin (Abcam, #53494) antibodies. To evaluate the capacity of biotinylated SAHBs to compete with tBID for interactions with BFL-1 and MCL-1, 293T cells were transfected with either HA-BFL-1ΔC C4S/C19S or FLAG-MCL-1 in the p3XFLAG-CMV-10 vector (Sigma) as above. After 24 h, cells were trypsinized, washed with PBS, lysed in 1% CHAPS buffer, and the supernatant collected for protein concentration determination by BCA kit. […] The mixtures were then subjected to HA or FLAG (Sigma-Aldrich, F7425) immunoprecipitation, followed by western analysis using 1:1000 dilutions of HA, FLAG, biotin, and BID (Santa Cruz sc-11423) antibodies. […] Cells were harvested and lysed as above, and incubated overnight with anti-HA agarose beads (Pierce). […]

GST-MCL-1ΔNΔC = biological target: T2, GST-MCL-1ΔNΔC (Homo sapiens, UniProt Q07820); assay: Streptavidin pull-down from anti-apoptotic protein mixture; type: binding; conditions: 1:1:1:1 mixture, 1 μM each, biotinylated SAHB
T2 construct: MCL-1ΔNΔC (aa 170-327) and BCL-XLΔC (aa 1-212) constructs were cloned into pGEX-4T-1; made in house; host or cells: Escherichia coli BL21(DE3)
T2 sequence (Q07820 170-327, stated change not applied): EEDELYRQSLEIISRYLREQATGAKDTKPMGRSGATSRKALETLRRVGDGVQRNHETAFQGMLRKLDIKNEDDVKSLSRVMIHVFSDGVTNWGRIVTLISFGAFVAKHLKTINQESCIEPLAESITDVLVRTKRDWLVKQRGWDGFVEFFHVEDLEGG
Protocol: (§1) Streptavidin Pull-down: Recombinant His-BFL-1ΔC, BCL-XLΔC (tagless) and GST-MCL-1ΔNΔC (1 μM each) were combined and reduced with 3 mM DTT in PBS for 30 min at RT, and then incubated with 1 μM biotinylated SAHBA, SAHBA-3 or vehicle for 4 h at RT. The mixtures were then combined with PBS-washed high-capacity SA agarose (Thermo Fisher Pierce) and incubated with rotation for 2 h at RT. The beads were centrifuged at 3000 rpm, washed twice with NP-40 lysis buffer (1% NP40, 50 mM Tris pH 8.0, 100 mM NaCl, 2.5 mM MgCl2), once with PBS, and then bound protein eluted by boiling in 10% SDS containing 10 mg/mL biotin. Inputs (10%) and eluates were electrophoresed on a 12% Bis-Tris gel and then subjected to silver stain and imaging.

His-BFL-1ΔC = biological target: T3, His-BFL-1ΔC (Homo sapiens, UniProt Q16548); assay: as above; type: binding; conditions: 1:1:1:1 mixture, 1 μM each, biotinylated SAHB; relative to SAHB without warhead
T3 construct: cDNA encoding BFL-1ΔC (aa 1-153) was cloned into the pET19b expression vector; made in house; host or cells: Escherichia coli BL21(DE3) LOBSTR
T3 sequence (Q16548 1-153): T1 sequence (Q16548 1-153 C4S/C19S) with S4C, S19C
Protocol: as §1

BCL-XLΔC = biological target: T4, BCL-XLΔC (Homo sapiens, UniProt Q07817); assay: Covalent conjugation assay of warhead-bearing SAHBs; type: binding
T4 construct: MCL-1ΔNΔC (aa 170-327) and BCL-XLΔC (aa 1-212) constructs were cloned into pGEX-4T-1; GST (N, cleaved yes); made in house; host or cells: Escherichia coli BL21(DE3)
T4 sequence (Q07817 1-212, stated change not applied): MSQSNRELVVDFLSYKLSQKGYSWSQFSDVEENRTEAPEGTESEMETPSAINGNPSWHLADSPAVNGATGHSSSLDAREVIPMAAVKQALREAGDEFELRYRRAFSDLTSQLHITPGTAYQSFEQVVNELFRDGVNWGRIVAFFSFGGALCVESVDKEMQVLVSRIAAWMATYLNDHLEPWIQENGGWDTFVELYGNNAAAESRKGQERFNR

BFL-1ΔC [1] = biological target: T5, BFL-1ΔC (Homo sapiens, UniProt Q16548); assay: Liposomal release assay with SAHBA-3/BFL-1ΔC conjugates; type: biochemical; conditions: BFL-1ΔC covalently conjugated to the peptide, 1.5 μM
T5 construct: cDNA encoding BFL-1ΔC (aa 1-153) was cloned into the pET19b expression vector; made in house; host or cells: Escherichia coli BL21(DE3) LOBSTR
T5 sequence (Q16548 1-153): T1 sequence (Q16548 1-153 C4S/C19S) with S4C, S19C
Protocol: as §1, with “Inputs (10%) and eluates were electrophoresed on a 12% Bis-Tris gel and then subjected to silver stain and imaging.” left out
Large unilamellar vesicles (LUVs) with encapsulated ANTS and DPX were generated and purified as described (Leshchiner et al., 2013; Lovell et al., 2008). The indicated combinations of BAX (400 nM), tBID (40 nM), and BFL-1ΔC or SAHBA-3/BFL-1ΔC conjugates (1.5 μM), were added to liposomes (5 μL) in 384 well plates (final volume, 30 μL), and released fluorophore was measured over 120 min using an M1000 Infinite plate reader (Tecan) with excitation and emission wavelengths of 355 nm and 520 nm, respectively. […] Percent ANTS/DPX release was calculated as [(F−F0)/(F100−F0)]×100, where F0 is baseline fluorescence at time 0, F is the fluorescence recorded for each time point, and F100 is the maximum amount of ANTS/DPX release based on liposomal treatment with 1% Triton X-100.

MCL-1ΔNΔC = biological target: T6, MCL-1ΔNΔC (Homo sapiens, UniProt Q07820); assay: Covalent conjugation assay of warhead-bearing SAHBs; type: binding
T6 construct: MCL-1ΔNΔC (aa 170-327) and BCL-XLΔC (aa 1-212) constructs were cloned into pGEX-4T-1; GST (N, cleaved yes); made in house; host or cells: Escherichia coli BL21(DE3)
T6 sequence (Q07820 170-327, stated change not applied): as the sequence (Q07820 170-327, stated change not applied) above
Protocol: Processing for gel electrophoresis and Coomassie staining was performed as above.

BFL-1ΔC [2] = assay: as above; type: binding, human
Protocol: For warhead-bearing SAHBs, His-BFL-1ΔC C4S/C19S protein was pretreated with 10 mM DTT in 50 mM Tris pH 8.0, 100 mM NaCl for 30 min at RT (final volume, 9.5 μL), and then combined with a 10:1 molar ratio of NOXA SAHBA or BIM SAHBA peptides bearing warheads 1-8 (final volume, 10 μL) for an additional 2 h incubation at RT. Processing for gel electrophoresis and Coomassie staining was performed as above.

[3] = test system: mouse embryonic fibroblasts (MEFs); assay: Cellular uptake by ImageXpress Micro epifluorescence microscopy; type: cell-based; conditions: FITC-labeled peptides, 4 h; data not shown
A375P melanoma cells = assay: Cell viability (CellTiter-Glo); type: cell-based, human; conditions: 40 μM, over time
Protocol: Cell Viability, LDH Release, and Caspase-3/7 Activation Assays: Cancer cells were cultured using their standard culture media containing 10% FBS and penicillin/streptomycin (A375P: DMEM; SK-MEL-2, SK-MEL-28 and MCF-7: EMEM: A549, H929: RPMI). […] Cell viability and caspase 3/7 activation was measured using CellTiter-Glo and Caspase-Glo 3/7 chemiluminescence reagents (Promega), respectively, and luminescence detected by a microplate reader (Spectramax M5, Molecular Devices). LDH release was quantified after 30 min peptide incubation by plate centrifugation at 1500 rpm for 5 min at 4° C., transfer of 100 μL cell culture media to a clear plate (Corning), incubation with 100 μL LDH reagent (Roche) for 30 min while shaking, and measurement of absorbance at 490 nm on a Spectramax M5 microplate reader. Mitochondrial Cytochrme c Release and Biotinylation Assays: A375P cells were plated in 6-well Corning plates (3×10^5 cells/well) and cultured as above. […] Briefly, pelleted cells were resuspended at 1×10^7 cells/mL in permeabilization buffer (20 mM HEPES/KOH pH 7.5, 250 mM sucrose, 50 mM KCl, 2.5 mM MgCl2) supplemented with 0.025% digitonin and protease inhibitors, followed by incubation on ice for 10 min and centrifugation at 13,000 g.

A375P cells = assay: Cellular uptake by ImageXpress Micro epifluorescence microscopy; type: cell-based, human; conditions: FITC-labeled peptides, 4 h; data not shown
Protocol: Confocal Microscopy: A375P cells were plated in chambered coverglass (1.5×10^4 cells/well) and cultured as above. […] Cells were washed, stained with MitoTracker Red (Thermo), Hoescht 33342, and imaged live. Confocal images were collected with a Yokogawa CSU-X1 spinning disk confocal (Andor Technology) mounted on a Nikon Ti-E inverted microscope (Nikon Instruments). Images were acquired using a 100×1.4 NA Plan Apo objective lens with an Orca ER CCD camera (Hamamatsu Photonics) and 488 nm laser. Acquisition parameters, shutters, filter positions and focus were controlled by Andor iQ software (Andor Technology). […] Data were collected for five sites per well at 20× magnification, with each treatment performed in triplicate, and then analyzed and quantified using MetaXpress software. […] A custom module in MetaXpress was applied to incrementally recede the CMDR image mask from the cellular border, further restricting the analyzed FITC signal to internalized peptide. The measurement of Total Internalized Fluorescence Intensity (TIFI) represents the level of absolute fluorescence detected per cell, per peptide construct. Maximum and minimum thresholding was utilized to exclude FITC and Cy5 outliers that were much larger and brighter than average, and total intensity and average intensity per cell thresholds were set such that vehicle-treated cells scored negative by the analysis.

Compound: NOXA SAHBA-3: NOXA SAHBA (aa 21-43) capped at L21 with D-nipecotic acid acrylamide warhead 3; JEVESATQLRXFGDXLNFRQKLL (SEQ ID NO:24) ([code J]EVESATQLR[S5]FGD[S5]LNFRQKLL; staple 11-15; reading uncertain)
- reactivity with other lysate proteins (biotin western) (HA-BFL-1ΔC C4S/C19S): little to no non-specific reactivity
- molecular weight shift of HA-BFL-1ΔC C4S/C19S (anti-HA western) (HA-BFL-1ΔC C4S/C19S; biotinylated peptide 10 μM, 2 h): prominent molecular weight shifts
- MCL-1ΔNΔC engagement in SA pull-down (GST-MCL-1ΔNΔC): relatively less
- BFL-1ΔC engagement in SA pull-down (His-BFL-1ΔC): notably more
- reactivity with BCL-XLΔC (BCL-XLΔC): did not react
- BFL-1ΔC suppression of tBID-triggered BAX-mediated liposomal release (BFL-1ΔC [1]): the inhibitory function of BFL-1 was lost
- reactivity with MCL-1ΔNΔC (MCL-1ΔNΔC): did not react
- reactivity with BFL-1 constructs WT, C4S/C19S, C55S, C4S/C19S/C55S (BFL-1ΔC [2]): exclusive reactivity with the WT and BFL-1 C4S/C19S constructs

Compound: C=CC(=O)N1CCC[C@@H](C(=O)N[C@H](C(=O)N[C@@H](C)C(=O)N[C@@H](CCC(N)=O)C(=O)N[C@@H](CCC(=O)O)C(=O)N[C@@H](CC(C)C)C(=O)N[C@@H](CCCNC(=N)N)C(=O)N[C@@]2(C)CCCC=CCCC[C@@](C)(C(=O)N[C@@H](Cc3ccccc3)C(=O)N[C@@H](CC(N)=O)C(=O)N[C@@H](C)C(=O)N[C@@H](Cc3ccc(O)cc3)C(=O)N[C@@H](Cc3ccc(O)cc3)C(=O)N[C@@H](C)C(=O)N[C@@H](CCCNC(=N)N)C(=O)N[C@@H](CCCNC(=N)N)C(N)=O)NC(=O)[C@H](CC(=O)O)NC(=O)CNC(=O)[C@H]([C@@H](C)CC)NC2=O)[C@@H](C)CC)C1 [BIM SAHBA-3] (Acryloyl-[Nip(3R)]IAQELR[S5]IGD[S5]FNAYYARR-NH2; staple 8-12; N-terminus and C-terminus assumed)
- cellular uptake [3]: equivalent cellular uptake
- cytotoxicity compared to BIM SAHBA1 (A375P melanoma cells): significant enhancement in cytotoxicity over time
- cellular uptake (A375P cells): equivalent cellular uptake
